Data set [1] concerns the target T1, wild-type Escherichia coli type II asparaginase (E. coli), P00805.
T1 chain: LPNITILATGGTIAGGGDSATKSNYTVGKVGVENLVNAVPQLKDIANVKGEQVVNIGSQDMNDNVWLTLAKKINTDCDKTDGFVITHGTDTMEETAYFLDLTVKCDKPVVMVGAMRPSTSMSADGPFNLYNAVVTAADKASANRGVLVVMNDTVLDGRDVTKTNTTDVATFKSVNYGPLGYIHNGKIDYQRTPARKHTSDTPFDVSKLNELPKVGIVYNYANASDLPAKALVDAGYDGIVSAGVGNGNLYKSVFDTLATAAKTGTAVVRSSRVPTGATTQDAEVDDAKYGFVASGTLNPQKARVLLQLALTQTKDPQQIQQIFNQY
The experiment in a line: SEC-MALS; analytical size-exclusion chromatography with static light scattering detection; 40 uM EcAII on S200 10/300 GL in 50 mM Tris/HCl pH 7.0, 100 mM NaCl; detection at 280 and 334 nm. Particulars: remark: other sources report otherwise. (In gel filtration, larger molecules generally elute earlier.)

Data set [2] deals with the molecule itself. The description is as above.

Consider 3 molecules from article PMC12090219, “Reversible Substrate-Specific Photocontrol of the Chemotherapeutic Asparaginase(-Glutaminase) from Escherichia coli” (ACS Catalysis, 2025).

Substitutions are numbered along the chain they refer to.

For orientation: stoichiometry N means a count of units in the complex or per binding partner.

B1: wild-type Escherichia coli type II asparaginase, P00805 23-348 (enzyme)
chain: T1 chain
On to B1, for which the stoichiometry N in data set [1] was 4.

B2: EcAII-T21AzoF (enzyme, E. coli)
chain: T1 chain with T21F
modifications: phenylalanine-4'-azobenzene (AzoF) at position 21
notes: type II L-asparaginase (EcAII) from E. coli, gene ansB, UniProt P00805, with the unnatural amino acid AzoF in place of T21; The new residue is the unnatural amino acid phenylalanine-4'-azobenzene; the as-isolated state is ~100% E; also called EcAII with phenylalanine-4'-azobenzene at position T21
B2: in data set [2], the “stoichiometry N” value turned out to be 4.

B3: EcAII-S19AzoF (enzyme, E. coli)
chain: T1 chain with S19F
modifications: phenylalanine-4'-azobenzene (AzoF) at position 19
notes: type II L-asparaginase (EcAII) from E. coli, gene ansB, UniProt P00805, with the unnatural amino acid AzoF in place of S19; The new residue is the unnatural amino acid phenylalanine-4'-azobenzene; the as-isolated state is ~100% E; also called EcAII with phenylalanine-4'-azobenzene at position S19
As for B3, in data set [2], the “stoichiometry N” value was 4.
